Laboratory results reported in article doi:10.1101/2022.04.25.489347 (bioRxiv, 2022).

Assays:
H2A/H2B dimer [1] = target: T1, H2A/H2B dimer (UniProt P06897 1-130; P02281 1-126); experiment: ITC
H3/H4 tetramer [2] = target: T2, H3/H4 tetramer (UniProt P84233 1-136; P62799 1-103); experiment: ITC
H2A/H2B dimer [3] = target: T1, H2A/H2B dimer; experiment: AUC
AUC = target: the molecule itself; experiment: AUC
H3/H4 tetramer [4] = target: T2, H3/H4 tetramer; experiment: AUC
crystal structure = target: the molecule itself; experiment: crystal structure

Binder | Kd (H2A/H2B dimer [1]) [nM] | Kd (H3/H4 tetramer [2]) [nM] | stoichiometry N (H2A/H2B dimer [3]) | stoichiometry N (H3/H4 tetramer [4]) | stoichiometry N (AUC) | stoichiometry N (crystal structure)
AtFKBP43 NTD (1-96) (domain or fragment, Arabidopsis thaliana, UniProt F4J9Q6 1-96, looked up) MAFWGVEVKPGKTFTLKNNEATGIRRLHLSQATLGHGTATNRSILQCNVGNKSPLLLCVLTPDKVDSCQLNLEFEETDEVIFSVIGPRSVHLTGYF |  |  |  |  | 5 | 
AtFKBP43 NTD (1-110) (domain or fragment, Arabidopsis thaliana, UniProt F4J9Q6 1-110, looked up) MAFWGVEVKPGKTFTLKNNEATGIRRLHLSQATLGHGTATNRSILQCNVGNKSPLLLCVLTPDKVDSCQLNLEFEETDEVIFSVIGPRSVHLTGYFLGRSTGFRPNDDES |  |  |  |  |  | 5

More lines, main results first:

Kd (H2A/H2B dimer [1]) [nM] | Kd (H3/H4 tetramer [2]) [nM] | stoichiometry N (H2A/H2B dimer [3]) | stoichiometry N (H3/H4 tetramer [4]) | Binder | stoichiometry N (AUC) | stoichiometry N (crystal structure)
60 ± 6 | 18 ± 2 | 1 | 1 | AtFKBP43 (1-164) (domain or fragment, Arabidopsis thaliana, UniProt F4J9Q6 1-164, looked up) MAFWGVEVKPGKTFTLKNNEATGIRRLHLSQATLGHGTATNRSILQCNVGNKSPLLLCVLTPDKVDSCQLNLEFEETDEVIFSVIGPRSVHLTGYFLGRSTGFRPNDDESESFGEDIVDTDMEKGSSDDYDYSDSFINDDDPAVRGSHVSSTDDDEISIKEMTA | 5 | 
460 ± 30 | 610 ± 40 | 1 | 1 | AtFKBP43 (1-136) (domain or fragment, Arabidopsis thaliana, UniProt F4J9Q6 1-136, looked up) MAFWGVEVKPGKTFTLKNNEATGIRRLHLSQATLGHGTATNRSILQCNVGNKSPLLLCVLTPDKVDSCQLNLEFEETDEVIFSVIGPRSVHLTGYFLGRSTGFRPNDDESESFGEDIVDTDMEKGSSDDYDYSDSF | 5 | 
